Consider six molecules from publication doi:10.1101/2025.02.07.637115 (bioRxiv, 2025).

To fix the notation:
B1: BMP6, mammalian expressed (glycosylated), recombinant human (ligand)
chain: SASSRRRQQSRNRSTQSQDVARVSSASDYNSSELKTACRKHELYVSFQDLGWQDWIIAPKGYAANYCDGECSFPLNAHMNATNHAIVQTLVHLMNPEYVPKPCCAPTKLNAISVLYFDDNSNVILKKYRNMVVRACGCH
modifications: N-linked glycosylation at Asn454 (prehelix loop)

Data set [1] addresses ActRIIB1-Fc (trap with a single ActRIIB ECD) (human). In words: SPR. (Surface plasmon resonance follows binding to a sensor surface in real time, without labels.)
Data set [2] deals with ALK2-ActRIIB-Fc heterodimeric trap (human, UniProt Q04771;Q13705). Briefly: SPR.
The target of data set [3] is ALK3-ActRIIB-Fc heterodimeric trap (human, UniProt P36894;Q13705). Briefly: SPR.
The data set “cryo-EM structure” deals with the molecule itself. Briefly: cryo-EM structure.
Data set [4] deals with B1. In words: SPR.
In data set [5] the target is B1. In words: cryo-EM structure.

Sequence of ALK2-ActRIIB-Fc heterodimeric trap (Q04771 21-123, one chain of several): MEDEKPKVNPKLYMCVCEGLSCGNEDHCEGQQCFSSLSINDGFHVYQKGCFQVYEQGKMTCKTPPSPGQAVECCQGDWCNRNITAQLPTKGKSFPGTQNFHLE

Turning to “BMP6, mammalian expressed (glycosylated), recombinant human (from UniProt P22004 375-513) (ligand)”, the Kd (in general, the constant that tells how readily two partners part at equilibrium) in data set [1] is 0.282 nM.

For the molecule B1, the Kd in data set [2] was 0.036 nM; in data set [3], 0.0517 nM. For the same molecule, the binding result in the data set “cryo-EM structure” was “binds”.

B2: deglycosylated BMP6 (ligand)
chain: SASSRRRQQSRNRSTQSQDVARVSSASDYNSSELKTACRKHELYVSFQDLGWQDWIIAPKGYAANYCDGECSFPLNAHMNATNHAIVQTLVHLMNPEYVPKPCCAPTKLNAISVLYFDDNSNVILKKYRNMVVRACGCH
modifications: deglycosylated with PNGase F
In the case of B2, the Kd in data set [2] was found to be 0.164 nM; in data set [3], 0.0714 nM.

B3: ActRIIB2-Fc (trap containing two ActRIIB ECDs) (Fc fusion)
chain: SGRGEAETRECIYYNANWELERTNQSGLERCEGEQDKRLHCYASWRNSSGTIELVKKGCWLDDFNCYDRQECVATEENPQVYFCCCEGNFCNERFTHLPEAGGPEVTYEPPPTAP
Regarding B3, the Kd in data set [4] was determined as 0.124 nM.

B4: ALK3 extracellular domain (ALK3 arm of ALK3-ActRIIB in the cryoEM structure) (domain or fragment)
chain: QNLDSMLHGTGMKSDSDQKKSENGVTLAPEDTLPFLKCYCSGHCPDDAINNTCITNGHCFAIIEEDDQGETTLASGCMKYEGSDFQCKDSPKAQLRRTIECCRTNLCNQYLQPTLPPVVIGPFFDGSIR
For the molecule B4, in data set [5], the binding result was “binds”.

B5: ALK3-Fc (homodimeric Fc-fusion of ALK3-ECD) (Fc fusion)
chain: QNLDSMLHGTGMKSDSDQKKSENGVTLAPEDTLPFLKCYCSGHCPDDAINNTCITNGHCFAIIEEDDQGETTLASGCMKYEGSDFQCKDSPKAQLRRTIECCRTNLCNQYLQPTLPPVVIGPFFDGSIR
For the molecule B5, the binding result in data set [4] was “binds”.
